Reference: US11447550B2, “Peptides for molecular detection of PD-L1” (THE CURATORS OF THE UNIVERSITY OF MISSOURI, priority 2016, dated 2022)
Ends that are not written are not given here.

Assays:
PD-L1 [1] = biological target: T1, PD-L1 (Homo sapiens, UniProt Q9NZQ7); test: Flow cytometry using cultured cell lines with Cy5-conjugated peptide; type: cell-based; design: Seven PD-L1 expressing NSCLC patient tissues were obtained from the MU OneHealth tissue bank; tissue MU OneHealth tissue bank; U.S. Biomax (TMA) LC1923; host or cells: FFPE placenta, seven NSCLC patient tissues, 192-case lung cancer tissue microarray, four Hodgkin's lymphoma cases; conditions: for MFI relative to MDA-MB-231: all lower peptide concentrations, FIG. 6A
Protocol: Cell lines MDA-MB-231, Y79, and MCF-7 were purchased from ATCC, thawed, and grown in culture to confluency. When confluent, adherent cells were removed from the flask by scraping gently with a cell scraper and media removed using centrifugation. Suspension cells were pipetted from the flask and centrifuged to remove media. Cell lines were resuspended in Eppendorf tubes in 100 μL PBS at a concentration of 5×10^6 cells per mL. Cy5-conjugated peptide solution was then added to the tubes to make the desired concentration of peptide in 200 μL. Eppendorf tubes were then placed in the incubator for 1 hour and vortexed at the 30-minute mark. After 1 hour, cell lines were analyzed on a BD FACS Canto II, a 3-laser, 8-color flow cytometer (San Jose, Calif.) using Diva 8.0 acquisition and analysis software (San Jose, Calif.). The cells of interest were gated using Forward and Side scatter (FSC/SSC) and positive antibody expression. 10,000 singlet events were collected for each specimen.
RK-10-Cy5 was then investigated for PD-L1 specificity using flow cytometry in cultured cell lines and patient tissues. […] To set our conditions for flow cytometry, titrations of PD-L1 peptide using all three cell lines were first examined. In each of the samples double-positives were selected by analyzing expression of both cytokeratin (FITC channel) and PD-L1 (Cy5 channel) (FIG. 15). […] Samples containing 0.1 and 0.05 mg/mL concentrations were deemed to have fluorescence intensities too high for accurate analysis for each cell line. Y79 and MCF7 both have a much lower PD-L1 expression than MDA-MB-231, which correlates with expression seen using Cy5 conjugated peptide and comparing the cell lines with flow cytometry. […] The MCF7 sample containing 0.005 mg/ml was much higher than anticipated due to this sample being treated twice with peptide. 0.005 mg/mL was selected as optimal concentration based on these comparisons, and all subsequent flow cytometry experiments were performed using this concentration. Lung cancer cell lines A549 (low PD-L1) and HCC827 (high PD-L1) were investigated for PD-L1 expression using both phycoerythrin-conjugated cd274 and RK-10-Cy5 (FIG. 6B). Cell lines were cultured as before and treated with either antibody or peptide in buffer. […] The antibody associated fluorescence was higher than the peptide associated fluorescence in both samples, which is attributed to differences in titrating peptide and antibody.

PD-L1 [2] = biological target: T1, PD-L1; test: Immunohistochemistry using Cy5-peptide (fluorescence) on FFPE tissues and lung cancer TMA; type: binding; design: Seven PD-L1 expressing NSCLC patient tissues were obtained from the MU OneHealth tissue bank; tissue MU OneHealth tissue bank; U.S. Biomax (TMA) LC1923; host or cells: FFPE placenta, seven NSCLC patient tissues, 192-case lung cancer tissue microarray, four Hodgkin's lymphoma cases
Text: PD-L1 expression was investigated in the same seven FFPE tissues and 192 lung cancer cases on a microarray using our peptide conjugated with Cy5 fluorophore. A lung cancer tissue microarray (TMA) was purchased from U.S. Biomax that contains 192 separate cases of various types of lung cancers (LC1923, biomax.us). In addition, seven NSCLC patient tissues were obtained from the Mizzou OneHealth tissue bank and de-identified according to IRB protocols. Paraffin-embedded tissue slides were baked overnight, then de-waxed and rehydrated according to standard protocols. Tissue sections were then subjected to antigen retrieval in EDTA at 95° C. for 20 minutes in EDTA ([…]). The solution was cooled for an additional 20 minutes on the bench top prior to buffer rinse. Tissues were then incubated with 15 μM Cy5-conjugated peptide for 2 hours in a humid chamber in the dark at RT. After 2 hours, slides were washed with buffer. The slides were then mounted using nucleus-specific DAPI counterstain and cover slipped. Slides were then imaged using fluorescence microscopy on a Leica DM5500 and compared to the same sections which had been stained with the Ventana antibody. For fluorescent analysis, DAPI channels and Cy5 channels were overlaid to image cell nuclei and PD-L1 expression, respectively.
Staining of the placenta and seven selected NSCLC patient tissues was again compared using the SP263 antibody and RK-10-Cy5 which was conjugated with a Cy5 fluorophore (FIG. 16). To stain with the fluorescent PD-L1 peptide, antigen retrieval was performed and tissue slides were treated with 15 μM fluorescent peptide in a dark, humid chamber for 2 hours, washed with buffer, then counter-stained and mounted with DAPI nucleus stain. Peptide-stained slides were imaged on a Leica DM5500 using channels specific for DAPI or Cy5, and channels were overlaid to examine PD-L1 expression. To confirm the data from the IHC stained tissues, the same seven patient tissues A-G were stained with RK-10-Cy5 (FIG. 10). […]

T1 sequence (Q9NZQ7 19-290): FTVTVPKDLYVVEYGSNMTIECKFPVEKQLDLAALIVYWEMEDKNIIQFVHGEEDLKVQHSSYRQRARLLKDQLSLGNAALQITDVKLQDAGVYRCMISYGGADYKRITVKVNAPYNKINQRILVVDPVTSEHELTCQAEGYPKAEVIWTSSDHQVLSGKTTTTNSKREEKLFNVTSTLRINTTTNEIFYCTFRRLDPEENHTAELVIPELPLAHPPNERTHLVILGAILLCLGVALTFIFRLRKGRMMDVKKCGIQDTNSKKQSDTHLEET

## Cy5-GSGSGSTYLCGAISLAPKAQIKESL [RK-10-Cy5]
PD-L1 [1]; MCF7 cells (no meaningful PD-L1 expression)
  MFI relative to MDA-MB-231: close to tenfold lower
PD-L1 [1]; MDA-MB-231 cells (very high PD-L1), Cy5 channel, 0.005 mg/mL peptide, FIG. 7A
  mean fluorescence intensity (MFI): 9,448
PD-L1 [1]; Y79 cells (no meaningful PD-L1 expression)
  MFI relative to MDA-MB-231: close to tenfold lower
PD-L1 [1]; lung cancer lines HCC827 (high PD-L1) vs A549 (low PD-L1), FIG. 6B
  signal associated with PD-L1 expression, HCC827 versus A549: much higher signal
PD-L1 [2]; 192 lung cancer cases (U.S. Biomax TMA), majority of cases, FIG. 11 panels d, e, f
  tumor staining in lung cancer tissue microarray: consistent, specific staining in tumor cells and immune infiltrate
PD-L1 [2]; four Hodgkin's lymphoma patient samples, FIG. 13
  staining of Reed-Sternberg cells: showed PD-L1 staining
PD-L1 [2]; seven NSCLC patient tissues A-G, 15 μM fluorescent peptide, 2 hours, FIG. 10
  fluorescent tumor staining in NSCLC patient tissues: stained many areas of tumor that the SP263 antibody did not
